Like-named read-outs stand apart in the source and are kept apart here.

These results are taken from PMC4513852.

The target of assay [1] is Hin F105C (Salmonella enterica) (UniProt P03013). Kind of assay: native gel or EMSA.
Assay [2] concerns the target Hin F106D (Salmonella enterica) (UniProt P03013). Kind of assay: native gel or EMSA. (In general: A gel shift assay detects complexes by their altered migration in electrophoresis.)
The target in assay [3] is Hin F106Y (Salmonella enterica) (UniProt P03013). Kind of assay: native gel or EMSA.
Assay [4] shares this target.
In assay [5] the target is Hin F106A (Salmonella enterica) (UniProt P03013). Kind of assay: native gel or EMSA.
The target in assay [6] is Hin F105M (Salmonella enterica) (UniProt P03013). Kind of assay: native gel or EMSA.
The target of assay [7] is Hin F106G (Salmonella enterica) (UniProt P03013). Kind of assay: native gel or EMSA.
The target in assay [8] is Hin F106P (Salmonella enterica) (UniProt P03013). Kind of assay: native gel or EMSA.
In assay [9] the target is Hin M109Q (Salmonella enterica) (UniProt P03013). Kind of assay: native gel or EMSA.
Assay [10] deals with Hin F106C (Salmonella enterica) (UniProt P03013). Kind of assay: native gel or EMSA.
Assay [11] concerns the target Hin F106M (Salmonella enterica) (UniProt P03013). Put plainly: native gel or EMSA.
Assay [12] has as its target Hin F106R (Salmonella enterica) (UniProt P03013). Kind of assay: native gel or EMSA.
Assay [13] addresses Hin M109H (Salmonella enterica) (UniProt P03013). Kind of assay: native gel or EMSA.
The target is the same in assay [14]. Put plainly: native gel or EMSA. The source holds these as a separate data set.
The target of assay [15] is Hin F105W (Salmonella enterica) (UniProt P03013). Kind of assay: native gel or EMSA.
Assay [16] has as its target Hin M109W (Salmonella enterica) (UniProt P03013). Put plainly: native gel or EMSA.
Assay [17] has as its target Hin F106V (Salmonella enterica) (UniProt P03013). Put plainly: native gel or EMSA.
The target in assay [18] is Hin F106N (Salmonella enterica) (UniProt P03013). Kind of assay: native gel or EMSA.
Assay [19] has as its target Hin F105L (Salmonella enterica) (UniProt P03013). Kind of assay: native gel or EMSA.
Assay [20] deals with Hin M109K (Salmonella enterica) (UniProt P03013). Kind of assay: native gel or EMSA.
The target of assay [21] is Hin F105I (Salmonella enterica) (UniProt P03013). Put plainly: native gel or EMSA.
Assay [22] deals with Hin F105V (Salmonella enterica) (UniProt P03013). Kind of assay: native gel or EMSA.
Assay [23] addresses Hin F106W (Salmonella enterica) (UniProt P03013). Put plainly: native gel or EMSA.
Assay [24] concerns the target Hin F106I (Salmonella enterica) (UniProt P03013). Kind of assay: native gel or EMSA.
For assay [25], the target named is Hin F106H (Salmonella enterica) (UniProt P03013). Kind of assay: native gel or EMSA.
Assay [26] has as its target Hin F106E (Salmonella enterica) (UniProt P03013). Put plainly: native gel or EMSA.
Assay [27] has as its target Hin-Q134C (wt) (Salmonella enterica) (UniProt P03013). Kind of assay: cross-linking.
For assay [28], the target named is Hin F106K (Salmonella enterica) (UniProt P03013). Kind of assay: native gel or EMSA.
The target in assay [29] is Hin F106L (Salmonella enterica) (UniProt P03013). Put plainly: native gel or EMSA.
The target of assay [30] is Hin F106S (Salmonella enterica) (UniProt P03013). Kind of assay: native gel or EMSA.
In assay [31] the target is Hin M109F (Salmonella enterica) (UniProt P03013). Kind of assay: native gel or EMSA.
Assay [32] deals with Hin F105Q (Salmonella enterica) (UniProt P03013). Put plainly: native gel or EMSA.
The target of assay [33] is Hin M109Y (Salmonella enterica) (UniProt P03013). Kind of assay: native gel or EMSA.
In assay [34] the target is Hin M109R (Salmonella enterica) (UniProt P03013). Put plainly: native gel or EMSA.
Assay [35] addresses Hin F105H (Salmonella enterica) (UniProt P03013). Kind of assay: native gel or EMSA.
For assay [36], the target named is Hin M109N (Salmonella enterica) (UniProt P03013). Put plainly: native gel or EMSA.
The target in assay [37] is Hin F106Q (Salmonella enterica) (UniProt P03013). Kind of assay: native gel or EMSA.
The target of assay [38] is Hin F106T (Salmonella enterica) (UniProt P03013). Kind of assay: native gel or EMSA.

“Hin F105C (from UniProt P03013 1-190) (enzyme)”: in assay [1], the stoichiometry N – broadly, a count of units in the complex or per binding partner – is 4. “Hin F106D (from UniProt P03013 1-190) (enzyme)” gave a stoichiometry N in [2] of 2. With “Hin F106Y (from UniProt P03013 1-190) (enzyme)”, the stoichiometry N in [3] turned out to be 2. In assay [4], this substance registered a Fis-activated in vitro DNA inversion rate, relative to wild type (% of the wild-type rate) of 10. Consider “Hin F106A (from UniProt P03013 1-190) (enzyme)”, for which the stoichiometry N in [5] stood at 2.

The substance “Hin F105M (from UniProt P03013 1-190) (enzyme)” gave a stoichiometry N in assay [6] of 4. The substance “Hin F106G (from UniProt P03013 1-190) (enzyme)” had a stoichiometry N in [7] of 2. For the substance “Hin F106P (from UniProt P03013 1-190) (enzyme)”, in [8], the stoichiometry N was 2. As for “Hin M109Q (from UniProt P03013 1-190) (enzyme)”, in [9], the stoichiometry N came to 4. On to “Hin F106C (from UniProt P03013 1-190) (enzyme)”, for which the stoichiometry N in assay [10] came out at 2.

As for “Hin F106M (from UniProt P03013 1-190) (enzyme)”, the stoichiometry N in assay [11] is 2. Regarding “Hin F106R (from UniProt P03013 1-190) (enzyme)”, the stoichiometry N in [12] stood at 2. In the case of “Hin M109H (from UniProt P03013 1-190) (enzyme)”, the stoichiometry N in assay [13] amounted to 2; in assay [14] it was 4. Consider “Hin F105W (from UniProt P03013 1-190) (enzyme)”, for which, in assay [15], the stoichiometry N was 4. In assay [16], “Hin M109W (from UniProt P03013 1-190) (enzyme)” gave a stoichiometry N of 4. In assay [17], “Hin F106V (from UniProt P03013 1-190) (enzyme)” displayed a stoichiometry N of 2. “Hin F106N (from UniProt P03013 1-190) (enzyme)” yielded a stoichiometry N in assay [18] of 2. “Hin F105L (from UniProt P03013 1-190) (enzyme)”: the stoichiometry N in assay [19] was 4. Turning to “Hin M109K (from UniProt P03013 1-190) (enzyme)”, the stoichiometry N in assay [20] was 4.

Substance “Hin F105I (from UniProt P03013 1-190) (enzyme)” showed a stoichiometry N in assay [21] of 4. For “Hin F105V (from UniProt P03013 1-190) (enzyme)”, in assay [22], the stoichiometry N was 4. “Hin F106W (from UniProt P03013 1-190) (enzyme)” showed a stoichiometry N in assay [23] of 2. “Hin F106I (from UniProt P03013 1-190) (enzyme)”: the stoichiometry N in assay [24] turned out to be 2.

The substance “Hin F106H (from UniProt P03013 1-190) (enzyme)” yielded a stoichiometry N in assay [25] of 2. Substance “Hin F106E (from UniProt P03013 1-190) (enzyme)” registered a stoichiometry N in assay [26] of 2. Consider “Hin-Q134C (wt) (from UniProt P03013 1-190) (enzyme)”, for which the percent crosslinked products in [27] is 65%. Take “Hin F106K (from UniProt P03013 1-190) (enzyme)”: the stoichiometry N in assay [28] stood at 2.

For “Hin F106L (from UniProt P03013 1-190) (enzyme)”, the stoichiometry N in assay [29] is 2. In turn, “Hin F106S (from UniProt P03013 1-190) (enzyme)” showed a stoichiometry N in assay [30] of 2. On to “Hin M109F (from UniProt P03013 1-190) (enzyme)”, for which, in assay [31], the stoichiometry N came out at 2. Substance “Hin F105Q (from UniProt P03013 1-190) (enzyme)” had a stoichiometry N in assay [32] of 4. For “Hin M109Y (from UniProt P03013 1-190) (enzyme)”, the stoichiometry N in assay [33] worked out at 4. “Hin M109R (from UniProt P03013 1-190) (enzyme)” had a stoichiometry N in [34] of 4. In turn, “Hin F105H (from UniProt P03013 1-190) (enzyme)” registered a stoichiometry N in [35] of 4. In turn, “Hin M109N (from UniProt P03013 1-190) (enzyme)” yielded a stoichiometry N in [36] of 2. The substance “Hin F106Q (from UniProt P03013 1-190) (enzyme)” yielded a stoichiometry N in assay [37] of 2. Consider “Hin F106T (from UniProt P03013 1-190) (enzyme)”, for which the stoichiometry N in assay [38] came to 2.
